Measurements as given in PMC4273445 (eLife, 2014).
Where a chain is given by its changes, count along the chain named. Several values for one entry are separate records, joined by “and”; a condition that tells them apart may be missing. Equal values may be shown once.

T1: factor H binding protein (fHbp) V3.28, recombinant His-tagged (Neisseria meningitidis, UniProt E6MV22 20-274)
T1 chain: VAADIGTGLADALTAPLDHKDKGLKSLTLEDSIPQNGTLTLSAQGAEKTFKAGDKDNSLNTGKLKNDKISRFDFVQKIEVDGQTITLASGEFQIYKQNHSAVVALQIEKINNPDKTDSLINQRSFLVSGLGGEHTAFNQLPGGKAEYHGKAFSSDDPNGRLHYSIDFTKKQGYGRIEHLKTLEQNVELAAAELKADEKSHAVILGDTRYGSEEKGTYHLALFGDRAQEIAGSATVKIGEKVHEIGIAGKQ

T2: CFHR3_(12), the first two (N-terminal) CCP domains of complement factor H-related 3 (human, UniProt Q02985 19-330)
T2 construct: also called CFHR12
T2 sequence: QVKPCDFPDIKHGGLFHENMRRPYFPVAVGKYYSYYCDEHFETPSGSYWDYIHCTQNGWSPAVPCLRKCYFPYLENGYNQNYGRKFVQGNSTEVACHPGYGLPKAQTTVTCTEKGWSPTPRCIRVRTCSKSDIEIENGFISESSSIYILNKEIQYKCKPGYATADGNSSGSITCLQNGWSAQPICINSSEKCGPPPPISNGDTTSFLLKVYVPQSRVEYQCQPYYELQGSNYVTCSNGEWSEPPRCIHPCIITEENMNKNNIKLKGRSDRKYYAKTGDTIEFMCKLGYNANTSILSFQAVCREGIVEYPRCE

T3: factor H binding protein (fHbp) V1.1 (N. meningitidis, UniProt Q9JXV4 20-274)
T3 construct: fHbp variant 1.1; source: recombinant, as in Johnson et al., 2012
T3 sequence: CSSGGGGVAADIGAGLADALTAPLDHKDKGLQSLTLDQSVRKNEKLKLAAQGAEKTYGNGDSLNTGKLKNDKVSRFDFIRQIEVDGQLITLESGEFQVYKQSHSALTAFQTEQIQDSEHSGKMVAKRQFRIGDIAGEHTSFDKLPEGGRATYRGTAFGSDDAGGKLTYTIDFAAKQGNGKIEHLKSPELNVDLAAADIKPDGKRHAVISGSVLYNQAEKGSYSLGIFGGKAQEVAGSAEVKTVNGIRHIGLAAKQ

B1: CFHR3_(12), the first two CCP domains of CFHR3 (domain or fragment)
chain: KPCDFPDIKHGGLFHENMRRPYFPVAVGKYYSYYCDEHFETPSGSYWDYIHCTQNGWSPAVPCLRKCYFPYLENGYNQNYGRKFVQGNSTEVACHPGYGLPKAQTTVTCTEKGWSPTPRCIR
B2: fHbp V2.21 Gln (at V1 Lys191) to Ala (natural protein)
chain: MGPDSDRLQQRRVAADIGAGLADALTAPLDHKDKSLQSLTLDQSVRKNEKLKLAAQGAEKTYGNGDSLNTGKLKNDKVSRFDFIRQIEVDGQLITLESGEFQIYKQDHSAVVALQIEKINNPDKIDSLINARSFLVSGLGGEHTAFNQLPSGKAEYHGKAFSSDDPNGRLHYSIDFTKKQGYGRIEHLKTPEQNVELASAELKADEKSHAVILGDTRYGSEEKGTYHLALFGDRAQEIAGSATVKIREKVHEIGIAGKQLEHHHHHH
B3: CFH67, CCP domains 6 and 7 of complement factor H (domain or fragment)
chain: TLKPCDYPDIKHGGLYHENMRRPYFPVAVGKYYSYYCDEHFETPSGSYWDHIHCTQDGWSPAVPCLRKCYFPYLENGYNQNYGRKFVQGKSIDVACHPGYALPKAQTTVTCMENGWSPTPRCI
notes: source: prepared as previously described (Prosser et al., 2007)
B4: fHbp V3.28 Val (at V1 Val272) to Ala (natural protein)
chain: T1 chain with V202A
B5: complement factor-H related 3 (CFHR3), full length, recombinant His-tagged, Q02985 19-330 (natural protein)
chain: T2 sequence
B6: complement factor-H related 3 (CFHR3), full length, recombinant His-tagged (natural protein)
chain: T2 sequence
B7: CFHR3_(12), the first two (N-terminal) CCP domains of complement factor H-related 3, Q02985 19-330 (domain or fragment)
chain: T2 sequence
B8: fHbp V2.21 Val (at V1 Val272) to Ala (natural protein)
chain: VAADIGAGLADALTAPLDHKDKSLQSLTLDQSVRKNEKLKLAAQGAEKTYGNGDSLNTGKLKNDKVSRFDFIRQIEVDGQLITLESGEFQIYKQDHSAVVALQIEKINNPDKIDSLINQRSFLVSGLGGEHTAFNQLPSGKAEYHGKAFSSDDPNGRLHYSIDFTKKQGYGRIEHLKTPEQNVELASAELKADEKSHAAILGDTRYGSEEKGTYHLALFGDRAQEIAGSATVKIREKVHEIGIAGKQ

Experiments:
[1] = molecular target: fHbp V1.1, recombinant His-tagged (Neisseria meningitidis) (UniProt Q9JXV4); assay: SPR
[2] = molecular target: T1, factor H binding protein (fHbp) V3.28, …; assay: SPR
[3] = molecular target: T2, CFHR3_(12), the first two (N-terminal) …; assay: SPR; conditions: both partners purified
[4] = molecular target: B3; assay: SPR; conditions: both partners purified
[5] = molecular target: T3, factor H binding protein (fHbp) V1.1; assay: SPR; conditions: both partners purified
[6] = molecular target: factor H binding protein (fHbp) V3.28 (N. meningitidis, UniProt E6MV22 20-274); assay: SPR; conditions: both partners purified
[7] = molecular target: T2, CFHR3_(12), the first two (N-terminal) …; assay: SPR; conditions: both partners purified; remark: listed apart in the source
[8] = molecular target: B3; assay: SPR; conditions: both partners purified; remark: listed apart in the source
[9] = molecular target: factor H binding protein (fHbp) V3.28, recombinant His-tagged (Neisseria meningitidis), E6MV22; assay: MST
[10] = molecular target: T1, factor H binding protein (fHbp) V3.28, …; assay: MST
[11] = molecular target: factor H binding protein (fHbp) V3.28 (N. meningitidis), E6MV22; assay: SPR

With “CFHR3_(12), the first two CCP domains of CFHR3 (domain or fragment)” as the molecule, how does the specificity for CFH over CFHR3 (fold) [1] read?
Its specificity for CFH over CFHR3 (fold) is 20 fold.

How did the Kd [2] turn out when B1 was run?
Its Kd is 4 nM.

How did the Kd [3] turn out when B2 was run?
The Kd was 2.85 nM.

And the Kd [4]?
Its Kd is 3.02 nM.

What does the source list for B3?
Kd [5]: 3.56 nM; Kd [6]: 2.74 nM and 2.46 nM and 3.17 nM

B4 was tested. Which Kd [7] did it give?
The Kd was 42 nM.

And the Kd [8]?
The Kd was 25.3 nM.

Which Kd [9] does the source give for B5 here?
The Kd was 3 nM.

B6 was tested. Which Kd [10] did it give?
Its Kd is 9 nM.

How did the Kd [11] turn out when B7 was run?
Its Kd is 4.08 nM and 4 nM and 4.25 nM.

B8 was tested. Which Kd [3] did it give?
Its Kd is 63.5 nM.
